Experimental data published in the supplement of paper PMC10266784.

B1: library; numbered along this chain (parent)
chain: MAAAAAAAAEQQSSNGPVKKSMREKAVERRSVNKEHNSNFKAGYIPIDEDRLHKTGLRGRKGNLAICVIILLFILAVINLIITLVIWAVIRIGPNGCDSMEFHESGLLRFKQVSDMGVIHPLYKSTVGGRRNENLVITGNNQPIVFQQGTTKLSVENNKTSITSDIGMQFFDPRTQNILFSTDYETHEFHLPSGVKSLNVQKASTERITSNATSDLNIKVDGRAIVRGNEGVFIMGKTIEFHMGGNMELKAENSIILNGSVMVSTTRLPSSSSGDQLGSGDWVRYKLCMCADGTLFKVQVTSQNMGCQISDNPCGNTH

Variants of: B1
Experiment: SGCB cell-surface expression functional score (HA stain, bin4 vs bin1, normalised to synonymous) (log10 ratio); higher = more cell-surface SGCB (functional)
Outline: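 Codon-saturation libraries of HA-tagged, YFP-fused human beta-sarcoglycan were lentivirally transduced at MOI <0.1 into HEK293 cells stably expressing alpha-, gamma- and delta-sarcoglycan. YFP-positive cells were sorted after 72 hours, grown 5–7 days, stained on ice with Alexa Fluor 647 anti-HA, fixed, sorted into four 5% intensity bins and amplicon-sequenced. The functional score is the log ratio of highest-bin to lowest-bin variant frequency, taken as the median over codons and duplicate transductions. Synonymous variants were scaled per section to mean 0, SD 0.5.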

SGCB cell-surface expression functional score (log10): each site, then its substitutions
A224: M 0.59; T 0.39; P -1.81; D -0.97; Q -0.44; G -0.16; V 0.53; K -2.05; E -1.01; H -0.71; L 1.04; R -1.54; C 0.31; Y -0.45; N -0.26; S 0.3; W -1.5
V220: A 0.7; H 0.43; S 0.45; Y -0.43; D -0.38; L 0.84; P 0.3; M 0.77; W -1.67; I 0.43; K -0.09; E -0.86; Q -0.31; N 0.09; T 0.63; R -1.12; G 0.34; C 0.09; F -0.09
A212: T 0.02; R -1.47; I 0.23; W -0.44; Q 0.72; M 0.16; D 0.56; S 0.29; K -1.05; F -0.4; N -0.89; E 0.91; H -0.76; Y 0.86; C -0.61; P -0.25; V -0.06; L -0.95; G 0.11
G222: D -0.04; Y 0.21; H 1.21; P -1.42; I -0.41; M 0.55; S 0.06; K 0.81; N 1.22; V -0.07; R -0.06; Q 0.85; C 0.58; T 0.6; A 0.63; W 0.49; L 0.26; E 0.65; F 0.36
S210: G -0.16; T -0.61; C -0.17; F -0.9; R -1.31; I -0.9; H -0.47; K -1.43; M -1.94; L -1.26; N -1.62; Y -2.28; P -1.92; A 0.29; V -1.36; D -0.42; E -1.75; Q -1.03; W -1.35
V226: G -0.26; L 0.56; S 0.01; M 0.21; Y -0.87; K -1.06; H -1.36; C 0.33; F 0.29; E 0.47; D -1.82; I 0.04; N -0.64; Q -0.68; P -0.81; A 0.3; W -1.37; R -1.54; T 0.44
S214: V -0.18; P -1.11; R -0.31; F -1.55; Q -0.1; T -0.12; K -0.46; N -0.1; W -1.07; L -1.06; I -0.69; M -0.57; A 0.25; C -0.08; H -0.9; Y -1.74; G -0.32
K219: P -0.21; A 0.76; S 0.32; T 0.6; H 0.53; I 0.23; E -0.03; D 0.29; R 0.05; V -0.18; Y -0.13; F 0.64; Q 0.3; G -0.33; L 0.3; C 0.59; W -0.31; M 0.67; N -0.17
I225: N 0.09; H 0.53; V 0.48; R 0.53; F 0.71; M 0.37; L 0.83; W 0.02; A 0.41; G 0.01; D 0.7; Y 1.24; E 1.24; P -1.25; S 0.63; Q 0.49; K 0.58; C 0.31; T 0.51
